Data on three molecules can be found in patent US20170183421A1 (Gilead, published 2017).

For test [1], the target named is T1, Rat MMP9 (rat, UniProt P50282 20-708, limits assumed). Kind of test: cell-based or functional assay.
Test [2] addresses T2, Mouse MMP9 (mouse, UniProt P41245 20-730, limits assumed). Put plainly: cell-based or functional assay.
Test [3] addresses T3, Human MMP9 (human, UniProt P14780 20-707). Kind of test: cell-based or functional assay.
The target in test [4] is T4, Cynomolgus monkey MMP9 (cynomolgus monkey, UniProt A0A2K5UU71 20-706). Put plainly: cell-based or functional assay.
Test [5] deals with T2, Mouse MMP9. Kind of test: ELISA.
Test [6] addresses T3, Human MMP9. Kind of test: ELISA.
For test [7], the target named is T1, Rat MMP9. Kind of test: ELISA.
For test [8], the target named is T3, Human MMP9. Kind of test: ELISA. The source holds these as a separate data set.
The target in test [9] is T4, Cynomolgus monkey MMP9. Put plainly: ELISA.
For test [10], the target named is T3, Human MMP9. Kind of test: direct binding and SPR assays.
The target in test [11] is T1, Rat MMP9. Put plainly: ELISA. The source holds these as a separate data set.
Test [12] deals with T3, Human MMP9. Kind of test: ELISA. This is another data set of the same source.
For test [13], the target named is T4, Cynomolgus monkey MMP9. Kind of test: ELISA. This is another data set of the same source.
The target in test [14] is T3, Human MMP9. Kind of test: SPR.
The target in test [15] is T3, Human MMP9. Kind of test: cell-based or functional assay. The source holds these as a separate data set.
In test [16] the target is T1, Rat MMP9. Kind of test: ELISA. The source holds these as a separate data set.
For test [17], the target named is T4, Cynomolgus monkey MMP9. Kind of test: ELISA. This is another data set of the same source.
Test [18] deals with T2, Mouse MMP9. Kind of test: ELISA. The source holds these as a separate data set.

Where “and” joins values, the source holds several entries; their conditions need not be identical. Equal values may be shown once. Read-outs that look alike come from different tables or passages of the source.

T4 sequence (A0A2K5UU71 entry or part of it): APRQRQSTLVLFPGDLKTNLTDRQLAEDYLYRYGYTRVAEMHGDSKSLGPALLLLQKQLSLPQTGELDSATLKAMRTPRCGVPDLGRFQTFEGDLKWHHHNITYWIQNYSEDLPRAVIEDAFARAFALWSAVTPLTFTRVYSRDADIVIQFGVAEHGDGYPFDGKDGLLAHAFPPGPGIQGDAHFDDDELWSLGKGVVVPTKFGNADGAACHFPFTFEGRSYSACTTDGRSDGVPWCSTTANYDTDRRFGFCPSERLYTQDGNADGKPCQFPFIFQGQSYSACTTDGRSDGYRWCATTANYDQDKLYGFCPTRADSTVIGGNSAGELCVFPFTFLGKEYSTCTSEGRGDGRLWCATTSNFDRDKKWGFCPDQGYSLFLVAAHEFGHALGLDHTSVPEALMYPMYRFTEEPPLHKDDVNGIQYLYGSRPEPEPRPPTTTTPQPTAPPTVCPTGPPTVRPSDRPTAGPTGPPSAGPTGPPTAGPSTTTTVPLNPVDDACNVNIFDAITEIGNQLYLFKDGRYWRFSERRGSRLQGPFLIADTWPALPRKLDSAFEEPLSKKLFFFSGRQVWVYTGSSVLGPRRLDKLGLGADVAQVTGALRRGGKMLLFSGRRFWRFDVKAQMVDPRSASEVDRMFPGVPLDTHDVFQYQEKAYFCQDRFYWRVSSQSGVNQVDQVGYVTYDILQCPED
T3 sequence (P14780 20-707 Q279R/R574P): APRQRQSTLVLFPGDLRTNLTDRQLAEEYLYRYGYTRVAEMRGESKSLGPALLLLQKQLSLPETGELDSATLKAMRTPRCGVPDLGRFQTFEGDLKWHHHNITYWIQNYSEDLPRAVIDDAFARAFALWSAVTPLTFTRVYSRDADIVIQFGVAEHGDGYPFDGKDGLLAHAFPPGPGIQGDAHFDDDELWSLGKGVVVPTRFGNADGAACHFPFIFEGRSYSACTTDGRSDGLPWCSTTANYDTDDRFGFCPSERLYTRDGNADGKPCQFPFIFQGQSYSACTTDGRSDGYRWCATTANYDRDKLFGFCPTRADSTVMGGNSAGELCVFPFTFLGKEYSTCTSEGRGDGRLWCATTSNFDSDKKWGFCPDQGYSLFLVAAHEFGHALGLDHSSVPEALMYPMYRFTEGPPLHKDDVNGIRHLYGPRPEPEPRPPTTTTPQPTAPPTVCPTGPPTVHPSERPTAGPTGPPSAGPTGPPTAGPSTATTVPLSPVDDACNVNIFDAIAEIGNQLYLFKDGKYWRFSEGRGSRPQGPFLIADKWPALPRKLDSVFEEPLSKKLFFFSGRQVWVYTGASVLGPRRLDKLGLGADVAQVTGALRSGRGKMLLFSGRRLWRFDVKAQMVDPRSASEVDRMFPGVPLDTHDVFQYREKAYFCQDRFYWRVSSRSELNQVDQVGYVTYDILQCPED
T2 sequence (P41245 20-730 limits assumed): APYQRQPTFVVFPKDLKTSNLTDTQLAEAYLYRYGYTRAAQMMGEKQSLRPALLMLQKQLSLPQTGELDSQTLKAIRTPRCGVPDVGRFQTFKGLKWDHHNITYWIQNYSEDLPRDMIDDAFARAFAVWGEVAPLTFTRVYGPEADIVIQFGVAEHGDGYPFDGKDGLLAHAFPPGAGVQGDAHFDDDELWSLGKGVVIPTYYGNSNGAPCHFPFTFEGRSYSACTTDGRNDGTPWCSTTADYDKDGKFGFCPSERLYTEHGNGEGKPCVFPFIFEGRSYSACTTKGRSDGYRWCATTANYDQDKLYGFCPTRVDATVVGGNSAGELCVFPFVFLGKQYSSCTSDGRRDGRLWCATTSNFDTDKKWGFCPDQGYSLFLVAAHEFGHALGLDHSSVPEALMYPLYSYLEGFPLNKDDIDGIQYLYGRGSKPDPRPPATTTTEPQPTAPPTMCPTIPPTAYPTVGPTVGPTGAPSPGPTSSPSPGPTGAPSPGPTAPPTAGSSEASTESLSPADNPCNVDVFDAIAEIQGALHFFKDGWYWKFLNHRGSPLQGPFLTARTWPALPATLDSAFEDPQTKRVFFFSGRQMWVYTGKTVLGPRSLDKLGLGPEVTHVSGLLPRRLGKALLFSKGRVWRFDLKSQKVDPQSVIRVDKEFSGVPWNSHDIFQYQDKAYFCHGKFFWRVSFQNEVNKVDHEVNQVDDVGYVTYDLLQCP
T1 sequence (P50282 20-708 limits assumed): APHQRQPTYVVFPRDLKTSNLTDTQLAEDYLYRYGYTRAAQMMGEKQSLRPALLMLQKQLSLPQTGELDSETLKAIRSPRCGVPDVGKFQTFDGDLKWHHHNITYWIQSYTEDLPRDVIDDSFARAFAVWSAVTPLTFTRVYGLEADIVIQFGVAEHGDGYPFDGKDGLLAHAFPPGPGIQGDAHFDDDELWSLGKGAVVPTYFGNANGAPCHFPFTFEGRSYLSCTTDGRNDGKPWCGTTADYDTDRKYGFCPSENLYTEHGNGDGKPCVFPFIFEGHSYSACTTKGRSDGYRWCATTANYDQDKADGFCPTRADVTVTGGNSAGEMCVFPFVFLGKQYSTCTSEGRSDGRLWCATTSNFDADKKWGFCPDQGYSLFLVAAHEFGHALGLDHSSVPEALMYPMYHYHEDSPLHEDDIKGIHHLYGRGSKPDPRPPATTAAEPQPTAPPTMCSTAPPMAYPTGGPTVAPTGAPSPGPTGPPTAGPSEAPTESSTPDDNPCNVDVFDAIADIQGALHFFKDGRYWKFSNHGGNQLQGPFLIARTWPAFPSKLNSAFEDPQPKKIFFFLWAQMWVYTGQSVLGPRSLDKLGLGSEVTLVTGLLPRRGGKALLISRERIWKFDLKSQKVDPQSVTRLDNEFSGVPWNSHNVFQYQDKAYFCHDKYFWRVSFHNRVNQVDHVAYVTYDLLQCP

B1: AB0046 (antibody, mouse IgG1, kappa, V domains shown)
VH: QVQLQQPGSVLVRPGASVKLSCTASGYTFTSYWMNWVKQRPGQGLEWIGEIYPISGRTNYNEKFKVKATLTVDTSSSTAYMDLNSLTSEDSAVYYCARSRANWDDYWGQGTTLTVSS
VL: DIQMTQTTSSLSASLGDRVTISCSASQGISNYLNWYQQKPDGTFKLLIYYTSILHSGVPSRFSGSGSGTDYSLTISNLEPEDIATYYCQQYGWLPRTFGGGTKLEIKR
notes: Mouse IgG1/kappa raised in MMP9-knockout mice against mouse MMP9; also called surrogate mouse antibody AB0046
Regarding B1, the “Activity Assay, Rat MMP9 IC50” value with Rat MMP9 [1] was more than 100 nM. The “Activity Assay, Mouse MMP9 IC50” value in the test with Mouse MMP9 [2] was determined as 0.352 nM. Besides, the “Activity Assay, Human MMP9 IC50” value in the test with Human MMP9 [3] was more than 100 nM. Moreover, in the test with Cynomolgus monkey MMP9 [4], the “Activity Assay, Cynomolgus monkey MMP9 IC50” value is more than 100 nM. In addition, the values for the Kd with Mouse MMP9 [5] and in the test with Human MMP9 [6] were 0.218 nM and more than 100 nM, respectively.

B2: AB0045 (antibody, human IgG4 S228P, kappa, V domains shown)
VH: QVQLQESGPGLVKPSETLSLTCTVSGFSLLSYGVHWVRQPPGKGLEWLGVIWTGGTTNYNSALMSRFTISKDDSKNTVYLKMNSLKTEDTAIYYCARYYYGMDYWGQGTLVTVSS
VL: DIQMTQSPSSLSASVGDRVTITCKASQDVRNTVAWYQQKPGKAPKLLIYSSSYRNTGVPDRFSGSGSGTDFTLTISSLQAEDVAVYYCQQHYITPYTFGGGTKVEIKR
notes: Humanized AB0041, modified IgG4 (S241P); also called humanized variant anti-MMP9 antibody; VH3/Vk4
Take B2: the equilibrium dissociation constant (Kd) was less than 0.4 nM with Rat MMP9 [7]; less than 0.4 nM with Human MMP9 [8]; less than 0.4 nM with Cynomolgus monkey MMP9 [9]; approximately 0.001 nM with Human MMP9 [10]; 0.311 nM in the test with Rat MMP9 [11]; 0.168 nM with Human MMP9 [12]. The Kd was 0.082 nM with Cynomolgus monkey MMP9 [13]; 0.0088 nM with Human MMP9 [14]; 0.311 nM in the test with Rat MMP9 [16]; more than 100 nM with Mouse MMP9 [5]; 0.168 nM with Human MMP9 [6]; 0.082 nM in the test with Cynomolgus monkey MMP9 [17]. The “Activity Assay, Rat MMP9 IC50” value with Rat MMP9 [1] turned out to be 8.23 nM. The “Activity Assay, Mouse MMP9 IC50” value with Mouse MMP9 [2] was more than 100 nM. Besides, in the test with Human MMP9 [3], the “Activity Assay, Human MMP9 IC50” value was 0.691 nM. Besides, in the test with Cynomolgus monkey MMP9 [4], the “Activity Assay, Cynomolgus monkey MMP9 IC50” value is 0.194 nM. In addition, the “IC50, MMP9 enzymatic assay under steady-state conditions” value in the test with Human MMP9 [15] was 0.148 nM to 0.161 nM (2×) and 0.158 nM.

B3: AB0041 (antibody, mouse IgG2b, kappa, V domains shown)
VH: QVQLKESGPGLVAPSQSLSITCTVSGFSLLSYGVHWVRQPPGKGLEWLGVIWTGGTTNYNSALMSRLSISKDDSKSQVFLKMNSLQTDDTAIYYCARYYYGMDYWGQGTSVTVSS
VL: DIVMTQSHKFMSTSVGDRVSITCKASQDVRNTVAWYQQKTGQSPKLLIYSSSYRNTGVPDRFTGSGSGTDFTFTISSVQAEDLAVYFCQQHYITPYTFGGGTKLEIKR
notes: Mouse IgG2b/kappa from hybridoma; derived by aligning the variable region entries to the full chains; also called mouse monoclonal anti-MMP9 antibody (AB0041)
As to B3, the Kd was less than 0.4 nM in the test with Rat MMP9 [7]; less than 0.4 nM with Human MMP9 [8]; less than 0.4 nM with Cynomolgus monkey MMP9 [9]; 0.332 nM with Rat MMP9 [11]; more than 100 nM in the test with Mouse MMP9 [18]; 0.133 nM in the test with Human MMP9 [12]. Besides, the Kd is 0.145 nM with Cynomolgus monkey MMP9 [13]; 0.0004 nM with Human MMP9 [14]; 0.332 nM with Rat MMP9 [16]; more than 100 nM with Mouse MMP9 [5]; 0.133 nM in the test with Human MMP9 [6]; 0.145 nM with Cynomolgus monkey MMP9 [17]. Besides, the “Activity Assay, Rat MMP9 IC50” value with Rat MMP9 [1] is 2.78 nM. In the test with Mouse MMP9 [2], the “Activity Assay, Mouse MMP9 IC50” value is more than 100 nM. In addition, the “Activity Assay, Human MMP9 IC50” value in the test with Human MMP9 [3] was determined as 0.569 nM. Besides, the “Activity Assay, Cynomolgus monkey MMP9 IC50” value in the test with Cynomolgus monkey MMP9 [4] worked out at 0.189 nM.
